Laboratory results as given in the Human Domainome abundance scans (Beltran et al. 2025).

B1: Gamma-crystallin C, residues 91 to 170; numbered along this chain, P07315 (parent)
chain: RLYEREDHKGLMMELSEDCPSIQDRFHLSEIRSLHVLEGCWVLYELPNYRGRQYLLRPQEYRRCQDWGAMDAKAGSLRRV

Variants of: B1
Test: abundance fitness (aPCA) (normalised: wild type 0, dead -1); higher = more abundant; growth selection in yeast, the domain comes from the species named
Details: Homo sapiens

Abundance fitness: each site, then its substitutions
S29: M -0.408 | N -0.003 | P -0.199 | T -0.012 | A -0.161 | H -0.064 | R -0.043 | F -0.318 | W -0.113 | I -0.408 | Q -0.086 | G -0.118 | D -0.073 | L -0.165 | C -0.237 | E -0.112 | Y -0.132 | K -0.013 | V -0.328
S21: L -0.761 | H -0.184 | N 0.053 | K -0.472 | Y -0.762 | M -0.914 | D -0.07 | P -0.602 | V -0.56 | C -0.089 | W -0.904 | E -0.554 | G -0.613 | T -0.456 | A -0.467 | I -0.842 | R -0.454
G10: T -1.01 | L -1.06 | N -0.655 | D -0.731 | V -0.821 | S -0.923 | R -0.931 | C -0.905 | H -0.818 | P -0.951 | F -0.717 | A -0.976 | Y -0.623 | Q -0.775
L11: T -0.049 | M -0.017 | W -0.289 | P -0.004 | E 0 | G -0.092 | R -0.031 | F -0.017 | C -0.08 | N 0.018 | D -0.248 | V -0.059 | H -0.144 | A -0.13 | I -0.116 | Q -0.127 | S -0.089
E30: C -0.117 | F -0.234 | H 0.019 | I -0.458 | G -0.273 | D -0.424 | A -0.133
D24: K -0.256 | E 0.045 | W -0.516 | C -0.274 | V -0.396 | Y -0.35 | N -0.183 | S -0.067 | H -0.087 | P -0.951 | M -0.194 | L -0.31 | G -0.167 | T -0.202 | Q -0.213 | A -0.008
L28: I 0.093 | N -0.697 | H -0.448 | S -0.251 | Y -0.252 | V -0.035 | P -0.864 | W 0.134 | K -0.022 | M -0.038 | Q -0.337 | E -0.451 | G -0.364 | T -0.601 | F -0.335 | A -0.129 | R -0.05
S16: F -0.123 | G -0.082 | A -0.043 | R -0.082 | L -0.276 | N -0.025 | M -0.365 | T -0.129 | P -0.859 | Y -0.094 | I -0.102 | C -0.096 | Q -0.132 | K -0.135 | D -0.029 | E 0.118
C19: V -0.43 | S -0.92 | M -0.761 | P -0.902 | A -0.836 | Y -0.712 | R -0.886 | K -0.623 | W -0.807 | E -0.369 | L -0.659 | F -0.969 | T -0.535
K9: Q 0.117 | T -0.156 | N -0.085 | R -0.132 | Y -0.467 | V -0.402 | P -0.728 | W -0.909 | M 0.212 | S -0.241
M13: W -0.018 | I -0.148 | H -0.283 | R -0.261 | S -0.441 | V -0.002 | N -0.24 | Y -0.112 | D -0.706 | P -1 | C -0.118 | L -0.078 | Q -0.22 | F -0.253 | G -0.07 | E -0.327 | A -0.085
R25: W -0.134 | Q -0.179 | S -0.078 | V -0.025 | T -0.148 | P -0.736 | L -0.184 | D -0.396 | K -0.07 | A -0.086 | G -0.602 | Y -0.463 | C -0.339 | I -0.598
L15: N -0.6 | M -0.431 | G -1.03 | V 0.037 | D -0.736 | E -0.89 | A -0.477 | C -0.09 | T -0.389 | S -0.832 | F -0.134
F26: G -0.406 | I -0.553 | Y -0.461 | W -0.007 | S -0.69 | R -0.886 | K -0.818 | C -0.317 | M -0.049 | Q -0.787 | V -0.461 | E -0.923 | L -0.343 | A -0.564 | T -0.217
P20: M -0.684 | N -0.152 | C -0.253 | D -0.24 | R -0.44 | L -0.613 | S -0.292 | A -0.025 | E -0.11 | H 0.061 | T -0.43 | G -0.394 | I -0.506 | W -0.503 | Q -0.442 | V -0.345 | Y -0.996
E14: P -0.269 | D -0.485 | T -0.169 | Q -0.227 | A -0.15 | G -0.524 | Y -0.04 | I -0.265 | K -0.095 | R -0.397 | C -0.565 | S -0.25 | V -0.227
E17: W -0.187 | S -0.155 | Y -0.526 | D -0.035 | T -0.231 | N -0.477 | H -0.564 | K -0.416 | A -0.18 | P -0.91 | Q -0.089 | F -0.516 | R -0.422 | I -0.533 | G -0.132 | L -0.544 | C -0.168 | V -0.253
M12: G -0.286 | C -0.288 | Q -0.636 | V -0.096 | A -0.127 | R -0.32 | N -0.11 | K -0.464 | I -0.242 | W -0.17 | Y -0.063 | P -0.038 | H -0.483 | D -0.863 | L -0.238 | S -0.172 | F -0.342 | T -0.464
D18: I -0.758 | S -0.142 | K -0.934 | Q -0.935 | V -1.01 | E -0.675 | R -0.938 | C -0.676 | A -0.462 | G -0.936 | Y -0.748 | T -0.805 | F -0.955 | M -0.496 | P -0.66 | L -0.956 | W -0.997
I22: S -0.975 | C -0.61 | V -0.149 | M -0.562 | G -0.921 | T -0.649 | W -0.801 | D -0.89 | P -0.978 | A -0.784 | R -0.771 | F -0.47 | Y -0.6 | L -0.084
H27: N 0.075 | T -0.345 | E -0.119 | L -0.18 | S -0.079 | I -0.739 | K -0.137 | R -0.037 | F -0.414 | G 0.047 | M -0.075 | W -0.441 | A -0.069 | C -0.115 | V -0.602 | Q -0.034
Q23: R -0.128 | I 0.007 | L -0.076 | K -0.043 | V -0.053 | D -0.276 | M -0.033 | N -0.016 | H -0.122 | W 0.003 | S -0.145 | E 0 | P -0.127 | Y -0.17 | F -0.093 | C -0.187 | A -0.044 | G -0.124
